The DeepSol protein solubility set

Experiment: soluble on expression in E. coli; label from the status in PepcDB or PDB records

Sequence	soluble on expression in E. coli
MSLTTRLADIAAQAGVSEATVSRVLNGKPGVAATTRQSVLAALDVLGYERPVRLRQRSEGLVGLITPELENPIFPALAQVIGQALTRQGYTPVLATQTPGGSTEDELTEMLVDRGVAGIIFVSGLHADTSADMQRYDQLRAQGVPFVLVDGFSPKVQAPFISPDDRAAMTLAVTHLVSLGHTRIGLALGPKRFVPVQRKIEGFVRSVQEQLGLSPDDVERELVQHSLYTLEGGQAAATALMDRDCTAVVCASDMMALGAIRAARQRGLDVPKDISVVGFDDSPLIAFTDPPLTTIRKPVPAMGQAAVRTLLEEIGGTPAPHSEFVFMPELVVRGSTASAPGDRNRPEGHHHHHH	soluble
MISAIILSGGKAERMGGEKSFRKSGNKYLIENIADMLIEMEIPFVTVFKNPRFMEKPEEEIEKQLYYYKKYHQTITWDFVPGMGPLIGMLSGMLNTKSQWVFLVPCDMPFITEESIINLLSFIKEAELNGYDCIVPKHKNGFIEPLFSLYHISSVNVLGMVVEEMLEQNRSFPIRRLIDELNPLYVDVDKIDKTCDIFINLNTLKELENACFDRLEHHHHHH	soluble
GPGSMLQSLVNSIVFVPPRDPNSLQRVQLLQRKRHMSFTSKKSGERISYFHFDPKGDLVTKDNPERVVRSSMVLLFHHGNAEDLGSAFSYAQSMACVFGVAVVVYDYCGYGFSGFPDAAKPAEVTEKSVYSDADHMYAHLLSLGYPAHRIIIVGRSVGGGPACYLAEKHHKKVGGLVLISTFTSCLRVVSSCCLPYLCCCVDLFPNYRRIEHIMECPVLVMHGTHDNVVPHHCSSELLEDIVARRNNALQRLLKKREGARANQAKRSSVLGAASTGPTNTTTASATIIVADEALVTAQPPLDGETVSVFDLYRRAYDGLPEAVRRVAEGRLDVTAADASIGVFHRWFAGCGHNDIEAREGHAFSDMFDYFVRFSTAFSMEREALLLAKPVTGAAKASRDSLNRADSEVRE	not soluble
KAFIDIFDSFDPEPIACGSIAQVYKGVLEGKPVAVKILRPHLIDIINIDLSILDDFKPVMKKVMGVGKNFDIDAFLLEIREMLTREVDLRIEAVNMRRFEDNFKNVKNVSVPKIYPDYC	not soluble
VFNSDAPLETTIKGMKTVMLGYDCRMSQQSPAYLERIVKDVKKYKKEDTLVIVNMHWGVEYRETPTNYQTQFGHAILDAGADIIMGAHPHRLESIEKYKDKYIVYSMGDFAFGADPTLLSRMTSMFQLRFTKEA	not soluble
MGSDKIHHHHHHMKMKEFLDLLNESRLTVTLTGAGISTPSGIPDFRGPNGIYKKYSQNVFDIDFFYSHPEEFYRFAKEGIFPMLQAKPNLAHVLLAKLEEKGLIEAVITQNIDRLHQRAGSKKVIELHGNVEEYYCVRCEKKYTVEDVIKKLESSDVPLCDDCNSLIRPNIVFFGENLPQDALREAIGLSSRASLMIVLGSSLVVYPAAELPLITVRSGGKLVIVNLGETPFDDIATLKYNMDVVEFARRVMEEGGIS	not soluble
MSLEEPFEIPPVEDTESVAKVDVRVDGIRDDRLSENVRIYLEAMDKNEADGSERHQYLLRENISKALRVFGYYNSQVYFDLQPRSGKKDLLIASVNVGEPVRIDSTDIEISGEAAEDEEFRKLDKNVPAKGAVLEHEIYDDYKSSLEKLARQRGYFDADFPVHELQVMPSTNQGWWHLVFNSGQRYHYGDISFHGSQIREDYLRNILKIQSGDPYLINDVSGMTSDYSSTNWFQSVLVKPTLHEDSKLVDLAVLLRPRKKNSMELGIGYGSDSGPHTQIGWTRPWINSRGHSVRSNLYISSPKQNFEATYKMPLLKNPLNYYYEFSTGFEHEDDTKTDTQSTAATVAALRFWNHPTGWQYSAGLRARYDNFTQADVDEKTLLIYPTATVSRSRISGGTFADRADTISVTVDLGRKMWASDVNFFRIRANAGWIKTFATNHRFLTRGDIGYLHTDEFNRIPPALRFFAGGDRSVRGYGYKKIAPKDSRNGKLVGGSRLATGTLEYQYQVVQDWWAATFFDAGFAANRFSSDELRYGAGVGVRWASPVGPIKFDIATPVRDKDDSKNIQFYIGLGTEEGHHHHHH	not soluble
MARPETEPKTELAKRFREVRRILGFTERKQFAEHLGVTAGSIGTYETGVSEPTASALSKYQEICGVSLDWLVTGNGEMFTDMAKAKAAGFKPQAIPAGLMKRLGHLAYTTYHDAKITLPPEDVAELAAGLYGKLQELIHNINDMEEVEATLPLLKLHLKRQIEVEKAHRAIPGNTANSSD	not soluble
MGSDKIHHHHHHMALYKTESGEIHLVRDICPHRGVPLTKGWVDGEEIVCPYHGLRYNTEGKCTQIPAQPELTKISDRFSLTKFPVVQRYGLIWTSIHGRDVTQANIPVLDTWDDAEHQAILPPFVDIGGSSGRQLEGFIDVAHFAWVHHNAFANRDNPIVPKYHTERTNYGLKTVYISNVSNYPHELKHLEPEGFLWKRTFEVYPPFSAVLTVDFPEGGILKILNACCPISSNKTRLFVPLTRNFDQTGDLEKVYAFNAQIFAEDQDMVESQKPEELPLDLMMEAHFEADRSSTTYRRILAEWGLSKRYTV	not soluble
MSLTGGLFGAKPAGSTTGGLFGANTSTQQPAATQGSGLFGAKPTGTGLFGGQTQGSTTSGASAGGLFGKSANPAPGGAGLFGNTAQSNSVSSNTGGLFGSKPAATGGLFGGQPSAPLSTFGQNPATTSLQTPGTGSLFGAKPVSTIAPNTASQMQQQTGISTTNPYGTNELFTRITIPESITAPSQPRFTKVNTDTKATSLNTAYKLNPKPLFSKGSLPSASIAHATPSIDKAPQNTDKSDNETTLVKFGSSLFNPETDEALITADELLFNPDRKSFKTLLINKKKVNEALLNEKSTSPDKDIKRITFNEKSLLKDEDSVRSSIFDNVLETPTNTENKLSEASSVDHDFNERQEVSRPDLKGDLMPNGISKLPGVKGSDFTQMENGYYISPSLDTLASMSLFQLSSVTNFVVGHKDHGYIEFMEPVNLTDIPLTLICGGIIEFRPRACIVKSGNEAGFHGKGFNVRARIVCYKCFPLDKSTRKPVTNPDHALVKNHIKKFKSMPNCKFESYDPKTGTYVFAVDNAEGHHHHHH	soluble
GVTYLLAKRKILYFEAVESKIFVYTEKDVYETTWKLYELEEKFKDSSFFRCSKSMILNIEWIEKIAPGFHGKFEASLFNREKVIISRQYAKILKQKLNLGGKGK	not soluble
MGNTSSERAALERHGGHKTPRRDSSGGTKDGDRPKILMDSPEDADLFHSEEIKAPEKEEFLAWQHDLEVNDKAPAQARPTVFRWTGGGKEVYLSGSFNNWSKLPLTRSHNNFVAILDLPEGEHQYKFFVDGQWTHDPSEPIVTSQLGTVNNIIQVKKTDFEVFDALMVDSQKCSDVSELSSSPPGPYHQEPYVCKPEERFRAPPILPPHLLQVILNKDTGISCDPALLPEPNHVMLNHLYALSIKDGVMVLSATHRYKKKYVTTLLYKPI	soluble
KKLNDFQEDAVNTILYSNKRKFLIHGVTGSGKTEIYMHLVKKMIEDNKQSIILVPEISLTPQMIERFKGRFGLNVAVFHSKLSDGERYDEWIRVKNGEVKVAVGARSALFLPFDKLGLIVIDEEHEGSYKSESDPKYNAIEVAEMKSAIEDCILVLGSATP	not soluble
ESLDEVVVVGMGTQRKVSVVGAVTSVNPAAISAPSTSVANMLGGVVPGIIAVDRSGEPGQDVSEFWIRGISTFGANQSALVLIDGIEGNLNDLDPSDIESFSILKDASATAVYGVRGANGVVLVTTRSGQEGR	not soluble
MKRISYIEDFEQWESGFSFYNPVKVRFGEVDMFGHVNNVVAFTYFEEARIALFKELGFMQEWTHASSETMIVVADLQCNFIKQIYFDEQLKVYVKAGSVGNSSLDLHYMVKNAEGEICLVGRGMMVQASKKTGRGEPWPEEWKKKLLQ	soluble
SYELTQPPSVSVAPGQTARISCSGDNIGGTFVSWYQQKPGQAPVLVIYDDNDRPSGIPERFSGSNSGNTATLTISGTQAEDEADYYCGTWDMVTNNVFGGGTKLTVLGQPKAAPSVTLFPPSSEELQANKATLVCLISDFYPGAVTVAWKADSSPVKAGVETTTPSKQSNNKYAASSYLSLTPEQWKSHRSYSCQVTHEGSTVEKTVAPTECS	soluble
MDAKQRIARRVAQELRDGDIVNLGIGLPTMVANYLPEGIHITLQSENGFLGLGPVTTAHPDLVNAGGQPCGVLPGAAMFDSAMSFALIRGGHIDACVLGGLQVDEEANLANWVVPGKMVPGMGGAMDLVTGSRKVIIAMEHCAKDGSAKILRRCTMPLTAQHAVHMLVTELAVFRFIDGKMWLTEIADGCDLATVRAKTEARFEVAADLNTQRGDL	soluble
